We go through one molecule from patent US9688760B2, “Anti-leukocyte adhesion for the mitigation of potential adverse events caused by CD3-specific binding domains” (AMGEN RESEARCH (MUNICH) GMBH, priority 2013, dated 2017).

The assay relates to HBMEC. Put plainly: In vitro flow chamber: T cell-rolling on HBMEC, long-term conditions. The class given is cell-based, human. The following applies: non-stimulated HBMEC, 45 min. How it is done:
Human brain microvascular endothelial cells (HBMEC) (#1000, Sciencell Research Laboratories) or human umbilical vein endothelial cells (HUVEC) (#C-12200, Promocell) were used as endothelial cell-model. Cryopreserved HBMEC at passage 1 (>5×10^5 cells/ml) were first cultivated in fibronectin-coated Nunclon-treated 75 cm^2 cell culture flasks (#156499, Nunc) at 37° C. and 5% CO2 in a Heraeus Cytoperm 2 (Thermo Scientific) according to the manufacturer's instructions. Sub-cultivation of HBMEC was done with the Detach Kit (#C-41200, Promocell) consisting of HEPES-buffered balanced salt solution (#C-40000, Promocell), trypsin-EDTA solution (0.04%/0.03%) (#C-41000, Promocell) and trypsin neutralization solution (TNS, #C-41100, Promocell). Briefly, the medium was aspirated from the HBMEC-layer and cells were washed with 2 ml of HEPES-buffered balanced salt solution. Addition of 2 ml of trypsin-EDTA solution for 1-5 min at room temperature led to detachment of HBMEC from the flask bottom. Inactivation of trypsin-EDTA solution was performed by addition of 2 ml of trypsin neutralization solution to the cell suspension. Cells were centrifuged at 300 g for 4 min in a Heraeus Megafuge 40 (Thermo Scientific) and seeded at a cell density of 5×10^5 cells per gelatin-coated 75 cm^2 cell culture flask (#L7230, Biochrom). […]

B1: recombinant P-selectin: recombinant human P-selectin (#ADP3-050, R&D Systems) (protein)
chain: WTYHYSTKAYSWNISRKYCQNRYTDLVAIQNKNEIDYLNKVLPYYSSYYWIGIRKNNKTWTWVGTKKALTNEAENWADNEPNNKRNNEDCVEIYIKSPSAPGKWNDEHCLKKKHALCYTASCQDMSCSKQGECLETIGNYTCSCYPGFYGPECEYVRECGELELPQHVLMNCSHPLGNFSFNSQCSFHCTDGYQVNGPSKLECLASGIWTNKPPQCLAAQCPPLKIPERGNMTCLHSAKAFQHQSSCSFSCEEGFALVGPEVVQCTASGVWTAPAPVCKAVQCQHLEAPSEGTMDCVHPLTAFAYGSSCKFECQPGYRVRGLDMLRCIDSGHWSAPLPTCEAISCEPLESPVHGSMDCSPSLRAFQYDTNCSFRCAEGFMLRGADIVRCDNLGQWTAPAPVCQALQCQDLPVPNEARVNCSHPFGAFRYQSVCSFTCNEGLLLVGASVLQCLATGNWNSVPPECQAIPCTPLLSPQNGTMTCVQPLGSSSYKSTCQFICDEGYSLSGPERLDCTRSGRWTDSPPMCEAIKCPELFAPEQGSLDCSDTRGEFNVGSTCHFSCDNGFKLEGPNNVECTTSGRWSATPPTCKGIASLPTPGVQCPALTTPGQGTMYCRHHPGTFGFNTTCYFGCNAGFTLIGDSTLSCRPSGQWTAVTPACRAVKCSELHVNKPIAMNCSNLWGNFSYGSICSFHCLEGQLLNGSAQTACQENGHWSTTVPTCQAGPLTIQEALTYFGGAVASTIGLIMGGTLLALLRKRFRQKDDGKCPLNPHSHLGTYGVFTNAAFDPSP
In the case of B1, the “mean T cell-rolling velocity±SD” value is listed as 402±93 μm/sec (T cells pre-incubated with 5 μg/ml recombinant P-selectin, +AMG 103 10 ng/ml) and 384±70 μm/sec (−AMG 103, +rec. P-selectin 5 μg/ml).
